# Experimental data from the nanobody polyreactivity screen of Harvey et al. (2022).
# Experiment: yeast display, Sf9 membrane polyspecificity reagent, FACS + sequencing; frameworks hold sequencing errors
# Method in brief: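 Genes from sorted yeast were amplified by colony PCR, read by MiSeq 2 × 250 sequencing and filtered on CDR length. These cells carried a synthetic nanobody library in Saccharomyces cerevisiae BJ5465 and were sorted by FACS into low and high (top ~1%) gates on anti-HA and streptavidin fluorescence. Polyreactivity is labelled according to the gate of origin.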
row,Sequence,polyreactivity (PSR sort gate)
1,QVQLVESGGGLVQAGGSLRLSCAASGRTFGPYAMGWYIQAPGKERELVAAITWSSGRTYYADSVKGRFTISRDNAKNTVYLQMNSLKPEDTAVYYCNKDRFYRNNYGYGYWGQGTQVTVSS,high polyreactivity
2,QVQLVESGGGLVQAGGSLRLSCAASGSTFPVNAMGWYRQAPGKERELVARIRGSGGSTYYADSVKGRFTISRDNAKNTVYLQMKSLKPEDTAVYYCAARYIGYSSYKYDYWGQGTQVTVSS,high polyreactivity
3,QVQLEESGGGLVQAGGSLRLSCAASGRTFAYYFMGWYRQAPGKERQLVAAISGSGGSTYYADSVKGRFTISRDNAKNTVYLQMNSLKPEDTAVYYCAAQYAYGGYDYWGQGTQVTVSS,high polyreactivity
4,QDQLVESGGGLVQAGGSLRLSCAASGSITAPYAMGWYRQAPGKERELVAAISYSGGSTNYADSVKGRFTISRDNAKNTVYLQMNSRKPEATAVYYCAARGYSGYRTSPLARYDYWGKGTQVTVSS,high polyreactivity
5,QVQLVYSGGGLVKAGGTLRLSCAASGSTFTPNAMGWYRQAPGKERELVAAINWSDSSTYYADSVKGRFTISRDNAKNTVYLQMNSLIPEDTAVYYCAAAAQYGQLQVPVYYWGEGTQVTVSS,low polyreactivity
6,QVQLVESGGGLVQAGGRLRLSCAASGSIFASYAMGWYRQAPGKERELVAAITSDGNTYYADSVKGRFTISRDNAKNTVYLPMNSLIPEDTAVYYCAADRYSTYPYAKGTEFYYWGQGTQVTVSS,low polyreactivity
7,QVQLVESGGGLVQAGGSLRLSCASSGFTFRYYAMGWYRQAPGKERELVAAITGNGGSTYYADSVKGRFTISRDNAKNTVYFQMNSLKPEDTAVYYCNKPYFTASGDRFGYWGQVTQVTVSS,high polyreactivity
8,QVQLVESGGGLVQAGGSLRLSCAASGRIFRIYAMGWYRQAPGKERELVASISDRGTRTYYADSVKGRFTISRDNAKNTVYLQMNSLKPEDTAVYYCAASTYTKFHTYYKSQASDYWGQGTQVTVSS,high polyreactivity
9,QVQLVESWGGLVQAGCRLRLSCAASGRTFLTYVMGWYRQAPGKERELVAAITRGGRTNYADSVKGRFTISRDNAKNTVFLQMNSLKPEDTAVYYCARDDTPRYDYWGQGTQVTVSS,low polyreactivity
10,QVQLVESGGGLVQGGGSLRLSCAASGINFRSYAMGRYRQAPGKERALVAAISWSGGSTYYADSVKGRFTISRDNAKNTVYLQMNSLKPDDTAVYYCAAKVRFSYGRGYDYWGQGTQVTVSS,high polyreactivity
11,QVQLVESGGGLVQAGGSLRLSCAASGRIFPTYAMGWYRQAPGKERELVAGITSGGRTNYADSVKGRFTISRDNAKNTVYLQMNSLKQEDTAVYYCDKRVWPRDQYGKRNPRMDYWGQGTQVTVSS,high polyreactivity
12,EEELVESGGGLVQPGGSLRLSCAASGSIFTHYSMGWYRQAPGKERELVAAISWSGGSTYYADSVKGRFTISRDNAKYTVSLQMNSLKAEDTAVYYCAAETYWGDDYWGQGTQVTVSS,high polyreactivity
13,QVQLVESGVGLVQAGGTLRLSCAASGITFLQYAMGWYRQAPGKERELVAGITRSGGAGTYYADSVKGRFTISRDNAKNTVYLQMNSLKPEDTAVYYCAAETDTPSLYQDMYYWGQGTQVTVSS,high polyreactivity
14,QVQLVESGGGLVQAGGSLLLSCAASGTTFDRNAMGGYRQAPGKEREIVDAIRFGGGSTNYADSVKGRFTISRDNAKNTVYLLMNSLKPEDTAVYYCNAERIWRYKYGYDYWGQGTQVTVSS,high polyreactivity
15,QVQLVESGGGLVQAGGSLRLSCAASGTFHWYAMGWYIQAPGKEMELVAAITGSGGNTYYADSVKGRFTISRDNAKNTVYLQMNSLKPEDTAVYYCAARIYTWSVEYTGYGYWGQGTQVTVSS,high polyreactivity
16,QEQLQESGGGQVQAGGSLLLSCAASGNIIPSYYMGWYRQAPGKERELVAAITYGTSTNYADSVKGRFTISRDNAKNTVFLQMISLKPVDTAVYYCAVDFNYGDPLVHWGQGTQVTVSS,high polyreactivity
17,QVQLVESVGVLVQAGGSLHLSCAASGSTFRYNAIGWYRQAPGKEREVVAAISKRGGSTYYADSVKGRFTISRDNAKNTVYLQMNSLKPEDTAVYYCAASYPSWSTRGESDYWGQGTQVTVSS,high polyreactivity
